Results reported in publication PMC13042586, “ATP13A2 is involved in intracellular polyamine transport in lung epithelial cells” (FEBS Open Bio, 2025).

Substrate: NCCCCNCCCN
Experiment: polyamine-dependent ATPase activity (Pi release, molybdate), Hill fit
Type: biochemical, Homo sapiens
Conditions: microsomes of overexpressing H441 cells, 2 mM ATP, 5 mM MgCl2, 20 mM Tris-HCl pH 8.0, 10% glycerol, 1 mM DTT, 37 °C, 30 min, Hill coefficient n = 1, constant printed as Kd but from ATPase stimulation
Source text: polyamine-dependent ATPase activity (Pi release, molybdate), Hill fit on ATP13A2 | Polyamine dependence of ATP13A2 was fitted to the Hill equation

B1: ATP13A2 (Homo sapiens) (protein)
chain: MSADSSPLVGSTPTGYGTLTIGTSIDPLSSSVSSVRLSGYCGSPWRVIGYHVVVWMMAGIPLLLFRWKPLWGVRLRLRPCNLAHAETLVIEIRDKEDSSWQLFTVQVQTEAIGEGSLEPSPQSQAEDGRSQAAVGAVPEGAWKDTAQLHKSEEAVSVGQKRVLRYYLFQGQRYIWIETQQAFYQVSLLDHGRSCDDVHRSRHGLSLQDQMVRKAIYGPNVISIPVKSYPQLLVDEALNPYYGFQAFSIALWLADHYYWYALCIFLISSISICLSLYKTRKQSQTLRDMVKLSMRVCVCRPGGEEEWVDSSELVPGDCLVLPQEGGLMPCDAALVAGECMVNESSLTGESIPVLKTALPEGLGPYCAETHRRHTLFCGTLILQARAYVGPHVLAVVTRTGFCTAKGGLVSSILHPRPINFKFYKHSMKFVAALSVLALLGTIYSIFILYRNRVPLNEIVIRALDLVTVVVPPALPAAMTVCTLYAQSRLRRQGIFCIHPLRINLGGKLQLVCFDKTGTLTEDGLDVMGVVPLKGQAFLPLVPEPRRLPVGPLLRALATCHALSRLQDTPVGDPMDLKMVESTGWVLEEEPAADSAFGTQVLAVMRPPLWEPQLQAMEEPPVPVSVLHRFPFSSALQRMSVVVAWPGATQPEAYVKGSPELVAGLCNPETVPTDFAQMLQSYTAAGYRVVALASKPLPTVPSLEAAQQLTRDTVEGDLSLLGLLVMRNLLKPQTTPVIQALRRTRIRAVMVTGDNLQTAVTVARGCGMVAPQEHLIIVHATHPERGQPASLEFLPMESPTAVNGVKDPDQAASYTVEPDPRSRHLALSGPTFGIIVKHFPKLLPKVLVQGTVFARMAPEQKTELVCELQKLQYCVGMCGDGANDCGALKAADVGISLSQAEASVVSPFTSSMASIECVPMVIREGRCSLDTSFSVFKYMALYSLTQFISVLILYTINTNLGDLQFLAIDLVITTTVAVLMSRTGPALVLGRVRPPGALLSVPVLSSLLLQMVLVTGVQLGGYFLTLAQPWFVPLNRTVAAPDNLPNYENTVVFSLSSFQYLILAAAVSKGAPFRRPLYTNVPFLVALALLSSVLVGLVLVPGLLQGPLALRNITDTGFKLLLLGLVTLNFVGAFMLESVLDQCLPACLRRLRPKRASKKRFKQLERELAEQPWPPLPAGPLR
notes: full-length with C-terminal TEV site, Halo tag and 6xHis (tags kept; ATP13A2-Halo, theoretical mass 165 K), adenovirus-mediated overexpression in NCI-H441 cells, microsome fraction
- K0.5: 1.00 mM
